Earlier results in publication PMC8886532.
pKd: −log10 of the molar value.

Biological target: kinetochore receptor (KNL1) (Homo sapiens) (UniProt Q8NG31)
UniProt Q8NG31, sequence (Q8NG31 whole entry): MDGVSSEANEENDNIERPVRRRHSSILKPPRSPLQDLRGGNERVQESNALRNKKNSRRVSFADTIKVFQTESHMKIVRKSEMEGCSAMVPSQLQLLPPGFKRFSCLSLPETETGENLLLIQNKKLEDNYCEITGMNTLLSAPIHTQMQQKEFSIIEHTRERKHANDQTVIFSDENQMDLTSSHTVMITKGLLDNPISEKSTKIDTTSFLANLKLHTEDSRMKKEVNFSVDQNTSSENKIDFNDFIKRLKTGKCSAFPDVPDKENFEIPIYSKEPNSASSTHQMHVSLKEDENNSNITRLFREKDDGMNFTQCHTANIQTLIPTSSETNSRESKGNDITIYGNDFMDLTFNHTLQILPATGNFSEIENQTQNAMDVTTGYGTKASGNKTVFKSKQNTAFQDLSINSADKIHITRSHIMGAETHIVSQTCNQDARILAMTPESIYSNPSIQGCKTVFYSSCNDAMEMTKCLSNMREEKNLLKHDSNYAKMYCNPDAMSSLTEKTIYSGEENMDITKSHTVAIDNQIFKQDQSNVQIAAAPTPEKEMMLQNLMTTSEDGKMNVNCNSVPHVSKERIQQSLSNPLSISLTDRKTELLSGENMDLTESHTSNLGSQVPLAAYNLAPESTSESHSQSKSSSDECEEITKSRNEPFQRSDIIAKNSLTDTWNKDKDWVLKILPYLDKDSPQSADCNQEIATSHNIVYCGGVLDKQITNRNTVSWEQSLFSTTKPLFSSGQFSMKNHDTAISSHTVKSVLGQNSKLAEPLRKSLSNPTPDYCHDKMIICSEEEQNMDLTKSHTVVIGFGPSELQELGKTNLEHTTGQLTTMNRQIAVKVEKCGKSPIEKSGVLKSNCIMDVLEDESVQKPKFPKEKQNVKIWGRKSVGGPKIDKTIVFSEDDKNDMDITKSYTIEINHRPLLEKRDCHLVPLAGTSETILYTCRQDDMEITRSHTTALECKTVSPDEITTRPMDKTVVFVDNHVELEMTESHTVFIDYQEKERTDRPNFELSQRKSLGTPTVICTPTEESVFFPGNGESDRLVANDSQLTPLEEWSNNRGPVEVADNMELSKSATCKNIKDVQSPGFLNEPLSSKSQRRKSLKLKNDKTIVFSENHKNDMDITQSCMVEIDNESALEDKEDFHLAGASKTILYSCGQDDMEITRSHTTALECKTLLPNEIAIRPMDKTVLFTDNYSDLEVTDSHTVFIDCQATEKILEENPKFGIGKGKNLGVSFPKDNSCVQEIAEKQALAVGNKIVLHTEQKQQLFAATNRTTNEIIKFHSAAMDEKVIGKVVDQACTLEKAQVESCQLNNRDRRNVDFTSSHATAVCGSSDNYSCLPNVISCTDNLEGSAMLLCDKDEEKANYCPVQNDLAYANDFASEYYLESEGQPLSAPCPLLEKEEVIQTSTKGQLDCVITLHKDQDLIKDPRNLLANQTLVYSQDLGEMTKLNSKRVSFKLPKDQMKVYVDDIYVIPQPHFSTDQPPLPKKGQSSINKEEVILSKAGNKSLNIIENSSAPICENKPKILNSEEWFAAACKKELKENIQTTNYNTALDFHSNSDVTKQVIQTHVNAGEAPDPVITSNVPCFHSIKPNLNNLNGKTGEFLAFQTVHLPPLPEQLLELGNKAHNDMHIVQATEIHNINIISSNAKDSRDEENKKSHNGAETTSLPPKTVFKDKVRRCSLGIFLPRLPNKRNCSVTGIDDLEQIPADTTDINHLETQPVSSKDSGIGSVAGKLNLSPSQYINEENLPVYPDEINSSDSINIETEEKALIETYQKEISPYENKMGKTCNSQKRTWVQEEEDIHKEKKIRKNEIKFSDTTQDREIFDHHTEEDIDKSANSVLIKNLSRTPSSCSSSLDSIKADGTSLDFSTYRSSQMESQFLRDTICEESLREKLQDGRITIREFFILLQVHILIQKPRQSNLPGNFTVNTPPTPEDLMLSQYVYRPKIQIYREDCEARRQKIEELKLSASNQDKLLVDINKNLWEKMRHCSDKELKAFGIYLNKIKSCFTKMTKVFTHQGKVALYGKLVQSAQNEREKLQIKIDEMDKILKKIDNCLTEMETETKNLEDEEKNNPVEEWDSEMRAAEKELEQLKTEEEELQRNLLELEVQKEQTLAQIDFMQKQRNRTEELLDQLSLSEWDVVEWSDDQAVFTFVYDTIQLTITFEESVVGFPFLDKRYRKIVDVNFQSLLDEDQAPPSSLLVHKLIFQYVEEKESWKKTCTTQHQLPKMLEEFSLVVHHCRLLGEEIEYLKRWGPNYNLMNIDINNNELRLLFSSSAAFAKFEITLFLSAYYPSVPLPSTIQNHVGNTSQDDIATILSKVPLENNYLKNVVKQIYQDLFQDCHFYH

- pKd: 7.00
Substance: BUB1/BUB3 complex (from UniProt O43683)
